One block for each binder: values may come before it.
Target: affinity purified BACE1 (BACE1-myc, wild type) (UniProt P56817 22-501, limits assumed)
Assay: cell-based or functional assay

Chain of affinity purified BACE1 (BACE1-myc, wild type) (P56817 22-501 limits assumed, form in doubt): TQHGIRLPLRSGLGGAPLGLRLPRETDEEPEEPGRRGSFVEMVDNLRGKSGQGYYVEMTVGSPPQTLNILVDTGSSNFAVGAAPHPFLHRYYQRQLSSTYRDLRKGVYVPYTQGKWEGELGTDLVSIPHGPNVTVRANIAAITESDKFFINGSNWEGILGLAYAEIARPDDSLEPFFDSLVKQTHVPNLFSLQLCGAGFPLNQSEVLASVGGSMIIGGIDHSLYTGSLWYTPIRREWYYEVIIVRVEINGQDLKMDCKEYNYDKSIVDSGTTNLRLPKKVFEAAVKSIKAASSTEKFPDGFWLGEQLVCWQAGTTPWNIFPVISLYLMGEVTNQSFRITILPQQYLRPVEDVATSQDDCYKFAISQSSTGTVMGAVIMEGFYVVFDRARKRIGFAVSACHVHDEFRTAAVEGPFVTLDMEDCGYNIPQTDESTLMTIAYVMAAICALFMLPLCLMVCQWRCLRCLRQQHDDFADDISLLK

acetyltransferase activity recovered from cell extracts (acceptor: affinity purified BACE1): ~2 fold
B1: ATase1 (acetyltransferase 1) with a myc tag at the C-terminus (enzyme, not shown: small tags and cut ends)
chain: MAPYHIRKYQESDRKSVVGLLSRGMAEHAPATFRRLLKLPRTLILLLGGALALLLVSGSWILALVFSLSLLPALWFLAKKPWTRYVDIALRTDMSDITKSYLSECGSCFWVGESEEKVVGTVGALPVDDPTLREKRLQLFHLSVDNEHRGQGIAKALVRTVLQFARDQGYSEVVLDTSNIQLSAMGLYQSLGFKKTGQSFFHVWARLVDLHTVHFIYHLPSAQAGRL

acetylCoA:lysine acetyltransferase activity recovered from total cell extracts (acceptor: affinity purified BACE1): ~3 fold
B2: ATase2 (acetyltransferase 2) with a myc tag at the C-terminus (enzyme, not shown: small tags and cut ends)
chain: MAPCHIRKYQESDRQWVVGLLSRGMAEHAPATFRQLLKLPRTLILLLGGPLALLLVSGSWLLALVFSISLFPALWFLAKKPWTEYVDMTLCTDMSDITKSYLSERGSCFWVAESEEKVVGMVGALPVDDPTLREKRLQLFHLFVDSEHRRQGIAKALVRTVLQFARDQGYSEVILDTGTIQLSAMALYQSMGFKKTGQSFFCVWARLVALHTVHFIYHLPSSKVGSL
